The data set concerns the molecule itself. Put plainly: crystal structure.

We go through one protein from article doi:10.1101/2020.07.06.189977 (bioRxiv, 2020).

B1: ERα-L372S/L536S double-mutant ligand-binding domain (LBD, amino acid residues 298–554) (domain or fragment, UniProt P03372 298-554, looked up)
chain: IKRSKKNSLALSLTADQMVSALLDAEPPILYSEYDPTRPFSEASMMGLLTNLADRELVHMINWAKRVPGFVDLTSHDQVHLLECAWLEILMIGLVWRSMEHPGKLLFAPNLLLDRNQGKCVEGMVEIFDMLLATSSRFRMMNLQGEEFVCLKSIILLNSGVYTFLSSTLKSLEEKDHIHRVLDKITDTLIHLMAKAGLTLQQQHQRLAQLLLILSHIRHMSNKGMEHLYSMKCKNVVPSYDLLLEMLDAHRLHAPTS
With B1, the binding result is “binds”.
